The values that follow come from patent US20210032299A1 (Eli Lilly, published 2021).

Starred links: 1 amine or outer side, 2 acyl side, 3 side chain; linkers in the order of their positions; H or OH if unused. Non-standard residues stand in square brackets, D forms with d. Groups on a side chain read outwards from the residue. No end group written: not given here. *: point of attachment. C20 diacid = O=C(O)CCCCCCCCCCCCCCCCCCC(=O)*; γGlu = O=C(O)[C@H](CCC(=O)[*:2])N[*:1]; αMeF = C[C@](N)(Cc1ccccc1)C(=O)O; 4Pal = N[C@@H](Cc1ccncc1)C(=O)O; αMeL = CC(C)C[C@](C)(N)C(=O)O; AEEA = NCCOCCOCC(=O)O; Aib = CC(C)(N)C(=O)O

What all share (assay): cell-based or functional assay
The target of one experiment is human glucagon receptor (human, UniProt P47871 26-477).
Another experiment concerns the target human GLP-1 receptor (human, UniProt P43220 24-463).
Experiment [1] concerns the target T1, human glucose-dependent insulinotropic peptide receptor (human, UniProt P48546 22-466).
T1 sequence (looked up): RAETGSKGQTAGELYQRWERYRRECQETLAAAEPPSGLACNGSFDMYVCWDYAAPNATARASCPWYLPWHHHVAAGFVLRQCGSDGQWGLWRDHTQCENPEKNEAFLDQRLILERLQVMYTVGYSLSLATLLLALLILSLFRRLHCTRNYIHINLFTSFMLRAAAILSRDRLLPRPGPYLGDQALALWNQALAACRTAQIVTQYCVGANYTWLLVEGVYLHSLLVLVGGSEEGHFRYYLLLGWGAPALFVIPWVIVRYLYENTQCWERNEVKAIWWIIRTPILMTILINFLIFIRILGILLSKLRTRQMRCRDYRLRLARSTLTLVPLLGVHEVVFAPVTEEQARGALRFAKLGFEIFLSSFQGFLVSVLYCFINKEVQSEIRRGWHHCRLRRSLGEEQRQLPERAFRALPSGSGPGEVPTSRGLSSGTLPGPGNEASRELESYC

Sequence of human glucagon receptor (P47871 26-477): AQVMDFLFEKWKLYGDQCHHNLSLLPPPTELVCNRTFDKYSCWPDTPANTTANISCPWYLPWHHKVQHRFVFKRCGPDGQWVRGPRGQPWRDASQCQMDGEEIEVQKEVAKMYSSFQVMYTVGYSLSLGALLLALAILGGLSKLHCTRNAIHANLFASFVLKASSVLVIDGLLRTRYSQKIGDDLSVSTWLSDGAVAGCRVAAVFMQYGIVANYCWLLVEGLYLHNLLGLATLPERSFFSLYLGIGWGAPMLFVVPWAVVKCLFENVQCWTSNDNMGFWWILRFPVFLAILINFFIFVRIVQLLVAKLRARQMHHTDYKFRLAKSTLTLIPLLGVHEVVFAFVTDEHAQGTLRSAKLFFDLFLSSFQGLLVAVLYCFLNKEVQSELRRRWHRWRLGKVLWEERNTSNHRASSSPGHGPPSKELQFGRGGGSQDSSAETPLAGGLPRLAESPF

B1: Example 62 (peptide)
peptide: Y[Aib]EGT[αMeF]ISDYSI[αMeL]LDKK([AEEA-AEEA-γGlu-C20 diacid])HQ[Aib]EFVE[4Pal]LLAAGPSSGAPPPS-NH2
modifications: N-terminus assumed
SMILES: CC[C@H](C)[C@H](NC(=O)[C@H](CO)NC(=O)[C@H](Cc1ccc(O)cc1)NC(=O)[C@H](CC(=O)O)NC(=O)[C@H](CO)NC(=O)[C@@H](NC(=O)[C@](C)(Cc1ccccc1)NC(=O)[C@@H](NC(=O)CNC(=O)[C@H](CCC(=O)O)NC(=O)C(C)(C)NC(=O)[C@@H](N)Cc1ccc(O)cc1)[C@@H](C)O)[C@@H](C)CC)C(=O)N[C@@](C)(CC(C)C)C(=O)N[C@@H](CC(C)C)C(=O)N[C@@H](CC(=O)O)C(=O)N[C@@H](CCCCN)C(=O)N[C@@H](CCCCNC(=O)COCCOCCNC(=O)COCCOCCNC(=O)CC[C@H](NC(=O)CCCCCCCCCCCCCCCCCCC(=O)O)C(=O)O)C(=O)N[C@@H](Cc1c[nH]cn1)C(=O)N[C@@H](CCC(N)=O)C(=O)NC(C)(C)C(=O)N[C@@H](CCC(=O)O)C(=O)N[C@@H](Cc1ccccc1)C(=O)N[C@H](C(=O)N[C@@H](CCC(=O)O)C(=O)N[C@@H](Cc1ccncc1)C(=O)N[C@@H](CC(C)C)C(=O)N[C@@H](CC(C)C)C(=O)N[C@@H](C)C(=O)N[C@@H](C)C(=O)NCC(=O)N1CCC[C@H]1C(=O)N[C@@H](CO)C(=O)N[C@@H](CO)C(=O)NCC(=O)N[C@@H](C)C(=O)N1CCC[C@H]1C(=O)N1CCC[C@H]1C(=O)N1CCC[C@H]1C(=O)N[C@@H](CO)C(N)=O)C(C)C
Turning to B1, the “hGcgR cAMP Rel EC50” value in the experiment with human glucagon receptor is above 5000 nM. For the same molecule, the “hGLP1R cAMP Rel EC50” value with human GLP-1 receptor stood at 58.2 nM. The “hGIPR cAMP Rel EC50” value in experiment [1] was 0.0116 nM.

B2: Example 63 (peptide)
peptide: Y[Aib]EGTFISDYSI[αMeL]LDKK([AEEA-AEEA-γGlu-C20 diacid])HQ[Aib]EFVEYLLEQGPSSGAPPPS-NH2
modifications: N-terminus assumed
SMILES: CC[C@H](C)[C@H](NC(=O)[C@H](Cc1ccccc1)NC(=O)[C@@H](NC(=O)CNC(=O)[C@H](CCC(=O)O)NC(=O)C(C)(C)NC(=O)[C@@H](N)Cc1ccc(O)cc1)[C@@H](C)O)C(=O)N[C@@H](CO)C(=O)N[C@@H](CC(=O)O)C(=O)N[C@@H](Cc1ccc(O)cc1)C(=O)N[C@@H](CO)C(=O)N[C@H](C(=O)N[C@@](C)(CC(C)C)C(=O)N[C@@H](CC(C)C)C(=O)N[C@@H](CC(=O)O)C(=O)N[C@@H](CCCCN)C(=O)N[C@@H](CCCCNC(=O)COCCOCCNC(=O)COCCOCCNC(=O)CC[C@H](NC(=O)CCCCCCCCCCCCCCCCCCC(=O)O)C(=O)O)C(=O)N[C@@H](Cc1c[nH]cn1)C(=O)N[C@@H](CCC(N)=O)C(=O)NC(C)(C)C(=O)N[C@@H](CCC(=O)O)C(=O)N[C@@H](Cc1ccccc1)C(=O)N[C@H](C(=O)N[C@@H](CCC(=O)O)C(=O)N[C@@H](Cc1ccc(O)cc1)C(=O)N[C@@H](CC(C)C)C(=O)N[C@@H](CC(C)C)C(=O)N[C@@H](CCC(=O)O)C(=O)N[C@@H](CCC(N)=O)C(=O)NCC(=O)N1CCC[C@H]1C(=O)N[C@@H](CO)C(=O)N[C@@H](CO)C(=O)NCC(=O)N[C@@H](C)C(=O)N1CCC[C@H]1C(=O)N1CCC[C@H]1C(=O)N1CCC[C@H]1C(=O)N[C@@H](CO)C(N)=O)C(C)C)[C@@H](C)CC
Consider B2, for which, in the experiment with human glucagon receptor, the “hGcgR cAMP Rel EC50” value was found to be 1170 nM. For the same molecule, the “hGLP1R cAMP Rel EC50” value in the experiment with human GLP-1 receptor is above 5000 nM. Further, the “hGIPR cAMP Rel EC50” value in experiment [1] is 0.0398 nM.
